Biological target: human prominin-1 (CD133) (human) (UniProt O43490)
Assay: cell-based or functional assay

UniProt O43490, sequence (O43490 20-865): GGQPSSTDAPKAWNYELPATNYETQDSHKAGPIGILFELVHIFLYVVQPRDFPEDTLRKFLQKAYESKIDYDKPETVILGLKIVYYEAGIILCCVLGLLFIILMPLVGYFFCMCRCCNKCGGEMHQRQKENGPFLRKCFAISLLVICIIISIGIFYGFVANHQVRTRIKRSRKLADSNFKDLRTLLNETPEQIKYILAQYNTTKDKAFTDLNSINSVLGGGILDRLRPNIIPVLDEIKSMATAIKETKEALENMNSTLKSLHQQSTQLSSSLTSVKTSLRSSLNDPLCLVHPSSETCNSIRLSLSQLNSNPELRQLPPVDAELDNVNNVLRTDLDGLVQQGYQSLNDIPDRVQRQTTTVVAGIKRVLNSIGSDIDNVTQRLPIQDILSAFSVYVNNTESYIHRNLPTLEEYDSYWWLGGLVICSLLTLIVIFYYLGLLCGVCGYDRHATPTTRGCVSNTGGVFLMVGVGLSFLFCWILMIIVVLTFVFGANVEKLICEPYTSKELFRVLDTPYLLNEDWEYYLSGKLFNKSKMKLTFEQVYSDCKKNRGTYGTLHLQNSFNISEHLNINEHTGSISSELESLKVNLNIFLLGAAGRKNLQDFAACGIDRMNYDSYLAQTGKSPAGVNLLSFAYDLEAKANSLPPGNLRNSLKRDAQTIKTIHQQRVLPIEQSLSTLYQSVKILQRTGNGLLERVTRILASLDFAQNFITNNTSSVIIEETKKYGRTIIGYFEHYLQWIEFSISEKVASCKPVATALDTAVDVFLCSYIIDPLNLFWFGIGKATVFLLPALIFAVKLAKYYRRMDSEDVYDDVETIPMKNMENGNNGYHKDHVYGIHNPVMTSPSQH

Row | Substance | IC50, cytotoxicity (resazurin) on HEK293 cells stably expressing CD133 | IC50, cytotoxicity (rezasurin dye conversion) in Hep3B cells | IC50, growth inhibition (3H-thymidine) of Caco-2 cells | IC50, cytotoxicity assay in Caco-2 cells
1 | AC133-mcMMAF (AC133 conjugated to maleimidocaproyl-MMAF) (antibody) | 1 ng/mL | 6 nM | 100 ng/mL | 
2 | AC133-vcMMAF (AC133 conjugated to maleimidocaproyl-valine-citrulline-p-aminobenzoyl-MMAF) (antibody) | 1 ng/mL | 0.35 nM | < 1 ng/mL | 3 ng/mL
3 | AC133-vcMMAE (AC133 conjugated to maleimidocaproyl-valine-citrulline-p-aminobenzoyl-MMAE) (antibody) | 6 ng/mL |  | 1000 ng/mL | 

Source: patent publication US20100040637A1
